B1: anti-LRP6 monoclonal antibody 995.5 (antibody, part only; not given: light chain, not determined, V domains shown, part only)
VH: RMKVLSLLYLLTAIPGILSDVQVQESGPGLVKPSQSLSLTCSVTGYSITSGYYWNWIRQFPGNKLEWMGYISYDGRNNYNPSLKNRISITRDTSKNQFFLKLNSVTTEDTATYYCARENSNYPYYYDYWGQGTTLTVSSAKT
B2: anti-LRP6 monoclonal antibody 993.9 (antibody, part only; not given: light chain, not determined, V domains shown, part only)
VH: DVQVQESGPGLVKPSQSLSLTCSVTGYSITSGYYWNWIRQFPGNKLEWMGYISYDGRNNYNPSLKNRISITRDTSKNQFFLKLNSVTTEDTATYYCARENSNYPYYYDYWGQGTTLTVSSAKT

Molecular target: Human LRP6-Fc (R&D Systems), recombinant human LRP6 containing the complete extracellular domain (human) (UniProt O75581)
Assay: SPR (BIAcore), mAb captured on anti-mouse chip, Fc-antigen injected, 1:1 model

Sequence of Human LRP6-Fc (R&D Systems), recombinant human LRP6 containing the complete extracellular domain (human) (O75581 20-1370 V1062I): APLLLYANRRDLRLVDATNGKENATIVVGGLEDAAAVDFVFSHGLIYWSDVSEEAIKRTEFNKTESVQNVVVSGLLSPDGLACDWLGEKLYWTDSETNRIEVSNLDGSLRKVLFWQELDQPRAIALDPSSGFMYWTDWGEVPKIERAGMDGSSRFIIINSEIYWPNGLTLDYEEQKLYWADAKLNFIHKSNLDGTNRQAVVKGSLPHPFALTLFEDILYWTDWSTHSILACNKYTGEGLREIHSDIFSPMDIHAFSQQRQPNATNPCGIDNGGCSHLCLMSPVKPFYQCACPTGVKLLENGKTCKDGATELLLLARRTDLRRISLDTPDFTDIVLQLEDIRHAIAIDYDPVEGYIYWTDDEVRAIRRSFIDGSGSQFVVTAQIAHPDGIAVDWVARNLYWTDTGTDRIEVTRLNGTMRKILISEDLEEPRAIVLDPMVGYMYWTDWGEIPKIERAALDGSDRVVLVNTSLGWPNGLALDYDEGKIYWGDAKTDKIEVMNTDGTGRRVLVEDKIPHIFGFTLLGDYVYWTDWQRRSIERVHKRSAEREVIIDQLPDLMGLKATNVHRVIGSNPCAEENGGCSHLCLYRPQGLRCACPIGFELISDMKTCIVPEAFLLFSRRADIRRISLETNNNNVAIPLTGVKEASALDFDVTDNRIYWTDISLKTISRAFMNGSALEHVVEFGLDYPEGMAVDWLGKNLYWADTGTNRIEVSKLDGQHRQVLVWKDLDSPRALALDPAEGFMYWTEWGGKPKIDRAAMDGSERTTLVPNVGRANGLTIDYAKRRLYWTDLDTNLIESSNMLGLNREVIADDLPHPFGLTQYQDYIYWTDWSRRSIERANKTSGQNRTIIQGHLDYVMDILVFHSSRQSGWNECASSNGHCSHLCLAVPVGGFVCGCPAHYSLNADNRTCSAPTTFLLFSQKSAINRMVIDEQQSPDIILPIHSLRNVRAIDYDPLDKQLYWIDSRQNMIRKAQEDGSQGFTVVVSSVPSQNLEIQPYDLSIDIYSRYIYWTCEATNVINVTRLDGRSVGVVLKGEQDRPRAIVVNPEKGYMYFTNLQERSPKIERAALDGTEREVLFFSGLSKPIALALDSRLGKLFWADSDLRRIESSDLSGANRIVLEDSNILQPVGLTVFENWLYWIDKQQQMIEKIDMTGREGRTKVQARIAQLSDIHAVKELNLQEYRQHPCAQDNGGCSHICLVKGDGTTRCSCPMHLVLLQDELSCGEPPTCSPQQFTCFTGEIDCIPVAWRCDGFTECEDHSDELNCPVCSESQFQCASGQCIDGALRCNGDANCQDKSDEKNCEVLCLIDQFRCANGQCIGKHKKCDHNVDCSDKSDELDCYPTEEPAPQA

Binder	Kd [nM]	koff [s⁻¹]	kon [M⁻¹ s⁻¹]
B1	1.09	4.51e-05	41400
B2	2.05	5.7e-05	28000

From patent US20140220040A1
